Where “and” joins values, the source holds several entries; their conditions need not be identical. Identical values can stand only once.
Tests used:
[1] = target: FcgRIIb (human) (UniProt P31994); test: flow cytometry (FACSCalibur), CHO-FcgRII-b-1 cells, pH 7.4, 100 ug/ml
[2] = target: FcgRI (human) (UniProt P12314); test: flow cytometry (FACSCalibur), THP-1 cells, pH 7.4, 100 ug/ml
[3] = target: FcgRIIb (human) (UniProt P31994); test: flow cytometry (FACSCalibur), CHO-FcgRII-b-1 cells, pH 7.4, detection reagent alone
[4] = target: FcRn (UniProt P55899); test: flow cytometry (FACSCalibur), FcRnGPI-CHO cells, pH 6.4, detection reagent alone
[5] = target: FcgRIIa (human) (UniProt P12318); test: flow cytometry (FACSCalibur), K562 cells, pH 7.4, detection reagent alone
FcgRIIa (human), sequence (P12318 34-317): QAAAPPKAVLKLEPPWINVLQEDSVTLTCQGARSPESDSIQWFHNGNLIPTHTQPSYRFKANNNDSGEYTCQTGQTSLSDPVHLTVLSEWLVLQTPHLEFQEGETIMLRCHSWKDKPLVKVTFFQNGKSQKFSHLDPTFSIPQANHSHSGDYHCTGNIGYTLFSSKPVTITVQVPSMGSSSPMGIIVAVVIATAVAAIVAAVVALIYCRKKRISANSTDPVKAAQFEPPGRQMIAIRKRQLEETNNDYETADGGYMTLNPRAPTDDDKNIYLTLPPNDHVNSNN

Row | Fc Receptor Binding Geometric Mean [1] | Fc Receptor Binding Geometric Mean [2] | Fc Receptor Binding Geometric Mean [3] | Fc Receptor Binding Geometric Mean [4] | Fc Receptor Binding Geometric Mean [5] | Substance
1 | 3 | 101 and 67 |  |  |  | EGFR (Erbitux ®, Imclone) (antibody)
2 |  |  | 3 | 6 and 5 | 3 | R-PE conjugated anti-human IgG F(Ab')2 (Jackson ImmunoResearch, Cat.#109-116-170)

Source: patent publication US20110044980A1
